Results from patent publication US20180353567A1 (THOMAS JEFFERSON UNIVERSITY, published 2018).

B1: ICL1-20 (peptide)
peptide: LVITAIAKFERLQTVT
HELM: PEPTIDE1{[CCCCCCCCCCCCCCCC(=O)[*:2]].L.V.I.T.A.I.A.K.F.E.R.L.Q.T.V.T.[am]}$$$$V2.0
SMILES: CCCCCCCCCCCCCCCC(=O)N[C@@H](CC(C)C)C(=O)N[C@H](C(=O)N[C@H](C(=O)N[C@H](C(=O)N[C@@H](C)C(=O)N[C@H](C(=O)N[C@@H](C)C(=O)N[C@@H](CCCCN)C(=O)N[C@@H](Cc1ccccc1)C(=O)N[C@@H](CCC(=O)O)C(=O)N[C@@H](CCCNC(=N)N)C(=O)N[C@@H](CC(C)C)C(=O)N[C@@H](CCC(N)=O)C(=O)N[C@H](C(=O)N[C@H](C(=O)N[C@H](C(N)=O)[C@@H](C)O)C(C)C)[C@@H](C)O)[C@@H](C)CC)[C@@H](C)O)[C@@H](C)CC)C(C)C
B2: ICL1-11 (peptide)
peptide: TAIAKFERLQTVTNYF
HELM: PEPTIDE1{[CCCCCCCCCCCCCCCC(=O)[*:2]].T.A.I.A.K.F.E.R.L.Q.T.V.T.N.Y.F.[am]}$$$$V2.0
SMILES: CCCCCCCCCCCCCCCC(=O)N[C@H](C(=O)N[C@@H](C)C(=O)N[C@H](C(=O)N[C@@H](C)C(=O)N[C@@H](CCCCN)C(=O)N[C@@H](Cc1ccccc1)C(=O)N[C@@H](CCC(=O)O)C(=O)N[C@@H](CCCNC(=N)N)C(=O)N[C@@H](CC(C)C)C(=O)N[C@@H](CCC(N)=O)C(=O)N[C@H](C(=O)N[C@H](C(=O)N[C@H](C(=O)N[C@@H](CC(N)=O)C(=O)N[C@@H](Cc1ccc(O)cc1)C(=O)N[C@@H](Cc1ccccc1)C(N)=O)[C@@H](C)O)C(C)C)[C@@H](C)O)[C@@H](C)CC)[C@@H](C)O
B3: ICL1-4 (peptide)
peptide: VITAIAKFERLQTVTN
HELM: PEPTIDE1{[CCCCCCCCCCCCCCCC(=O)[*:2]].V.I.T.A.I.A.K.F.E.R.L.Q.T.V.T.N.[am]}$$$$V2.0
SMILES: CCCCCCCCCCCCCCCC(=O)N[C@H](C(=O)N[C@H](C(=O)N[C@H](C(=O)N[C@@H](C)C(=O)N[C@H](C(=O)N[C@@H](C)C(=O)N[C@@H](CCCCN)C(=O)N[C@@H](Cc1ccccc1)C(=O)N[C@@H](CCC(=O)O)C(=O)N[C@@H](CCCNC(=N)N)C(=O)N[C@@H](CC(C)C)C(=O)N[C@@H](CCC(N)=O)C(=O)N[C@H](C(=O)N[C@H](C(=O)N[C@H](C(=O)N[C@@H](CC(N)=O)C(N)=O)[C@@H](C)O)C(C)C)[C@@H](C)O)[C@@H](C)CC)[C@@H](C)O)[C@@H](C)CC)C(C)C

Key:
[1] = target: β2AR-Renilla Reniformus luciferase II fusion (UniProt P07550 1-413); assay: cell-based or functional assay
FLAG-β2AR = FLAG-β2AR (UniProt P07550 1-413, limits assumed); assay: cell-based or functional assay

Binder	EC50 of β-arrestin2 recruitment to the β2AR (BRET) [1]	cAMP production in HEK293 cells stably overexpressing FLAG-β2AR (FLAG-β2AR)
B1	1100 nM	
B2	1700 nM	~2 fold increase over vehicle
B3	1900 nM	
